Results from paper PMC6488296.

B1: MBP-PIF6_(1-100)-His6 [A. thaliana] / PhyB_(1-651)-Avitag-His6 [modified: phycocyanobilin chromophore; biotin on the Avitag; phycocyanobilin chromophore; biotin on the Avitag] [A. thaliana] (parent)
chain 1: MMFLPTDYCCRLSDQEYMELVFENGQILAKGQRSNVSLHNQRTKSIMDLYEAEYNEDFMKSIIHGGGGAITNLGDTQVVPQSHVAAAHETNMLESNKHVD
chain 2: MVSGVGGSGGGRGGGRGGEEEPSSSHTPNNRRGGEQAQSSGTKSLRPRSNTESMSKAIQQYTVDARLHAVFEQSGESGKSFDYSQSLKTTTYGSSVPEQQITAYLSRIQRGGYIQPFGCMIAVDESSFRIIGYSENAREMLGIMPQSVPTLEKPEILAMGTDVRSLFTSSSSILLERAFVAREITLLNPVWIHSKNTGKPFYAILHRIDVGVVIDLEPARTEDPALSIAGAVQSQKLAVRAISQLQALPGGDIKLLCDTVVESVRDLTGYDRVMVYKFHEDEHGEVVAESKRDDLEPYIGLHYPATDIPQASRFLFKQNRVRMIVDCNATPVLVVQDDRLTQSMCLVGSTLRAPHGCHSQYMANMGSIASLAMAVIINGNEDDGSNVASGRSSMRLWGLVVCHHTSSRCIPFPLRYACEFLMQAFGLQLNMELQLALQMSEKRVLRTQTLLCDMLLRDSPAGIVTQSPSIMDLVKCDGAAFLYHGKYYPLGVAPSEVQIKDVVEWLLANHADSTGLSTDSLGDAGYPGAAALGDAVCGMAVAYITKRDFLFWFRSHTAKEIKWGGAKHHPEDKDDGQRMHPRSSFQAFLEVVKSRSQPWETAEMDAIHSLQLILRDSFKESEAAMNSKVVDGVVQPCRDMAGEQGIDELGA

Variants of: B1
Assay: size exclusion chromatography (gel filtration, Superdex 200 10/300 GL, A671 nm)
Details: with PhyB_(1-651)-Avitag-His6 [modified: phycocyanobilin chromophore, PhyB illuminated with 660 nm light, PhyB:MBP-PIF 2:1 molar ratio, 60 min at room temperature, parent: 56, read off a plot

Variant	response (% PhyB-PIF complex)
chain 1 N35Q	52
chain 1 C9S C10S N35Q	54

More lines, now with the values ahead:

response (% PhyB-PIF complex)	Variant
57	chain 1 S37A
64	chain 1 C9S C10S
